Values quoted from earlier work, collected in patent publication US20260297164A1, “ANTI-FIBROTIC PEPTIDES AND USES THEREOF” (Deackt, Inc., priority 2021, published 2026).

Tested on: CD148
Conditions: extracellular proteins; cited from earlier work

B1: syndecan-2: known extracellular protein that can bind to CD148 (protein, UniProt P34741 19-201, looked up)
Syndecan-2: ESRAELTSDKDMYLDNSSIEEASGVYPIDDDDYASASGSGADEDVESPELTTSRPLPKILLTSAAPKVETTTLNIQNKIPAQTKSPEETDKEKVHLSDSERKMDPAEEDTNVYTEKHSDSLFKRTEVLAAVIAGGVIGFLFAIFLILLLVYRMRKKDEGSYDLGERKPSSAAYQKAPTKEFYA
binding to CD148 and activation of PTP activity: can bind to CD148 and activate PTP activity
